Laboratory results from US20150352207A1, “USE OF ANTIBODIES AGAINST ICAM-1 IN COMBINATION WITH AN ANTI CANCER DRUG IN THE TREATMENT OF PATIENTS” (BIOINVENT INTERNATIONAL AB, priority 2013, published 2015).
Entries after “also recorded” stand apart in the source; their conditions may differ. Like-named read-outs stand apart in the source and are kept apart here.

Key:
EJM myeloma cells = assay: Subcutaneous scid myeloma xenograft, EJM; format: in vivo, scid mice; conditions: 2 mg/kg twice weekly
Experimental: (§1) Antibody treatment with 2 mg/kg B11 or control IgG1 was started at Day 1 and was continued on a twice-weekly intraperitoneal dosing regimen. Mice were sacrificed when tumor sizes reached the ethical limit.

RPMI-8226 myeloma cells [1] = assay: Subcutaneous scid myeloma xenograft, RPMI-8226; format: in vivo, scid mice; conditions: 2 mg/kg twice weekly
Experimental: as §1

RPMI-8226 myeloma cells [2] = assay: Advanced disseminated RPMI-8226 multiple myeloma model; format: in vivo, SCID mice; conditions: for survival: B11 2 mg/kg i.v. twice weekly for 8 weeks
Experimental: ARH-77 cells or RPMI-8226 were injected intravenously into the SCID mice. (A) ARH-77 model. Animals received intravenous injections with antibody at 2 mg/kg or bortezomib (Velcade) at 0.5 mg/kg on Days 7, 10, 13, and 16 (as indicated by arrows in the graph). (B) RPMI-8226-model. B11 or control mAb was administered i.v at 2 mg/kg, twice weekly for 8 weeks, bortezomid, at 1 mg/kg, once weekly for 8 weeks, lenalidomide p.o with 2 mg/kg for 2 cycles consisting of 5 days of treatment and 2 days of wash out, melphalan i.v at 3 mg/kg, once weekly for 8 weeks, and dexamethasone (DXH) at 6 mg/kg/inj 3 times/week for 2 consecutive weeks. There were 6-10 mice per treatment group. Statistical significance was calculated using Log-rank Graphpad Prism software and determined at ***p<0.001. (C) To study the ICAM-1 level on human cells, the cells from different organs were stained and gated for CD38+/mCD45−/B11+. Left panel indicates the percentage of B11 positive cells in CD38+/mCD45 population and right panel the mean fluorescent intensity of the positive cells.
The anti-myeloma effect of B11 was examined in a disseminated model of multiple myeloma. The early and advanced disseminated model of multiple myeloma was performed at Oncodesign, Dijon, France. Briefly: 1×10^6 (early) or 5×10^6 (advanced) ARH-77 tumor cells in 200 μL of RPMI 1640 were injected intravenously (i.v) into the caudal vein of female scid mice (D0). Tumor cell injections were performed twenty four to forty eight hours after a whole body irradiation of mice (1.8 Gy, ^60Co, INRA, BRETENNIERES). The treatment was started at D5 RPMI-8226 model or D7 (ARH-77 model) […]. B11 or control mAb was administered i.v. at 2 mg/kg, twice weekly for 8 weeks, bortezomib, at 1 mg/kg, once weekly for 8 weeks, lenalidomide p.o with 2 mg/kg for 2 cycles consisting of 5 days of treatment and 2 days of wash out, melphalan i.v. at 3 mg/kg, once weekly for 8 weeks, and dexamethasone at 6 mg/kg 1 injected 3 times a week for 2 consecutive weeks.
200 μl containing 10×10^6 of RPMI 8226 tumour cells was intravenously injected into the caudal vein of female SCID mice. The mice had been subjected to a whole body irradiation of mice (1.8 Gy, ^60Co, BioMEP) 24 to 72 hours prior to cell injection. At D1, tumor injected mice were randomized according to their individual body weight. All treatment started day 5 after tumor cell administration except for ALKERAN®, which started at day 10. All treatments were injected in a dose volume of 10 ml/kg/inj. Mice received one of the following treatments:
Monoclonal anti-ICAM mAb or control mAb was administered i.v in a PBS solution containing at 2 mg/kg, 2 times/week for 8 consecutive weeks. […]

Daudi lymphoma cells = assay: Programmed cell death (PCD) assay, Daudi cells; format: cell-based
Experimental: Target cells were seeded in 96-well culture plates at a density of 2×10^6 cells/mL culture medium. Titrated concentrations of IgG1 B11 or different negative and positive control antibodies were added to the cells, in the absence or presence of anti-human Fab fragment (Jackson ImmunoResearch) for cross-linking. The cells were then incubated for 16 hours at 37° C. in a humidified atmosphere of 5% CO2. The cells were harvested and stained for Annexin V-488/Propidium Iodide (Invitrogen, Sweden) and analysed using flow cytometer (FACS Calibur, BD Bioscience).

PBMC [3] = assay: PBMC cytokine release; format: cell-based
Excerpt: (§2) We next assessed IgG B11 effects on PBMC cytokine release and cell proliferation. In order to maximize chances of identifying any PBMC agonistic properties of IgG B11, we used two different antibody coating-protocols where antibody is hyper-cross-linked as previously described (62).

PBMC [4] = assay: PBMC / T cell proliferation; format: cell-based; conditions: immobilised antibody or in solution
Excerpt: as §2

ARH-77 xenograft tissues = conditions: compared to control IgG, untreated and rituximab-treated mice
Experimental: (A) ARH-77 cells were injected subcutaneously into the left flank of SCID mice (n=8 per group). Mice were treated with the different B11 isotypes twice weekly. […] Statistical significance was calculated relative to control antibody treatment using Kruskal-Wallis Test (Nonparametric ANOVA) with Dunn's Multiple Comparisons Test. Statistical significance was considered for *p<0.05, **p<0.01, and ***p<0.001.

ARH-77 tumors = assay: Advanced (established, palpable tumors) scid/ARH-77 xenograft model; conditions: IgG B11 effective even at 100-fold lower dose (0.2 mg/kg) than rituximab
Experimental: Mice were anaesthetized with a mixture of sevofluran and oxygen prior to myeloma cell inoculation and 1-5×10^6 myeloma cells were then subcutaneously injected in a volume of 100 μl into the left flank. Treatment with antibodies by intraperitonial (i.p.) injections was started either the day after cell inoculation (prophylactic model) or when tumors reached a size of approximately 100 mm^3 (established model). Antibodies were administrated in PBS in a total volume of 200 μL. Treatment with PBS or isotype control was used as control. Tumors were measured with a digital calliper and the tumor volumes were calculated according to formula: width^2×length×0.52. Animals were sacrificed when the tumor sizes reached the ethical limit of 1.5 cm. Surviving mice were sacrificed after a maximum of 5 months. Blood samples collected from the vena cava were centrifuged at 2500 g for 15 min to obtain serum and the samples were stored at −20° C. Tumors were removed for immunohistochemistry, snap frozen and were kept at −85° C.

B1: IgG B11: novel human ICAM-1 antibody targeting the B11 epitope, isolated from the naïve antibody library n-CoDeR (antibody, V domains shown)
VH: EVQLLESGGGLVQPGGSLRLSCAASGFTFSNAWMSWVRQAPGKGLEWVAFIWYDGSNKYYADSVKGRFTISRDNSKNTLYLQMNSLRAEDTAVYYCARYSGWYFDYWGQGTLVTVSS
VL: QSVLTQPPSASGTPGQRVTISCTGSSSNIGAGYDVHWYQQLPGTAPKLLIYDNNNRPSGVPDRFSGSKSGTSASLAISGLRSEDEADYYCQSYDSSLSAWLFGGGTKLTVLG
modifications: B11 antibody variable H region; B11 antibody variable L region
With B1 the “reduction of myeloma tumor growth” value (EJM myeloma cells) was 98%, the “reduction of myeloma tumor growth” value (RPMI-8226 myeloma cells [1]) was 96% and the survival (RPMI-8226 myeloma cells [2]) was “significantly enhanced survival; also recorded: trend towards improved survival in IgG B11 treated mice compared to mice treated with the immunomodulatory drug revlimid”. The survival (RPMI-8226 myeloma cells [2]; listed as B11, 2 mg/kg) was “significantly enhances survival; also recorded: highly improved survival”, the survival (RPMI-8226 myeloma cells [2]; listed as anti ICAM-1 mAb) was “more effective compared to other SOC single therapies” and the disease onset (RPMI-8226 myeloma cells [2]; B11 2 mg/kg i.v. twice weekly, compared to bortesomib and dexamethasone) was “delayed disease onset”. The PCD-induction (Daudi lymphoma cells; ICAM-1 expressing Daudi lymphoma cells) was “dose dependent PCD-induction”, the “programmed cell death by immobilised antibody” value (Daudi lymphoma cells; antibody immobilised by either coating protocol, data not shown) was “induced programmed cell death” and the PBMC cytokine release (PBMC [3]; antibody in solution, resting or lipopolysaccharide pre-stimulated PBMCs) was “did not induce or enhance cytokine release”. For the same molecule, the PBMC cytokine release (PBMC [3]; immobilised antibody, or in solution with or without cross-linking reagent) was “did not, however, induce PBMC cytokine release”, the PBMC cytokine release (PBMC [3]; immobilised antibody, or in solution with or without cross-linking reagent, listed as B11) was “not significantly affected” and the cell proliferation (PBMC [4]) was “did not induce cell proliferation”. The cell proliferation (PBMC [4]; listed as B11) was “not significantly affected”, the “F4/80 positive host effector cell (macrophage) infiltration of tumor tissue” value (ARH-77 xenograft tissues) was “massive influx” and the “F4/80 positive host effector cell (macrophage) infiltration of tumor tissue” value (ARH-77 xenograft tissues; listed as B11) was “significantly increased”. The animal survival (ARH-77 tumors) was “prolonged animal survival” and the tumor growth (ARH-77 tumors) was “significantly prevented tumor growth”.
